The test has as its target Human HER2 expressed on tumour cells (human, UniProt P04626 23-1255). Kind of test: cell-based or functional assay.

B1: DARPin #42 (designed binder)
chain: MRGSHHHHHHGSDLGAKLLSDLGVKLLWAAARGQDDEVRILLAAGADVNAKDFQGITPLHIAAQSGHLEIVEVLLKAGADVNAKDVTGDTPLHLAAQHGHLVIVEVLLKAGADVNAQDERGWTPADLAADWGHEDIAEVLQKLGGGGSGGGGSRSDLGKKLLEAARAGQDDEVRILMANGADVNATDIHGHTPLHLAAAMGHLEIVEVLLKNGADVNANDWRGFTPLHLAALNGHLEIVEVLLKNGADVNATDTAGNTPLHLAAWFGHLEIVEVLLKNGADVNAQDKFGKTAFDISIDNGNEDLAEILQKLN
Regarding B1, the “% activity vs. DARPin # 41, BT474 cell proliferation” value is 100% and the “IC50 [nM], inhibition of BT474 cell proliferation (BrdU)” value (from here on “IC50 [nM], inhibition”) is 3.77 nM.

B2: DARPin #65 (designed binder)
chain: MRGSHHHHHHGSDLGAKLLSDLGVKLLWAAARGQDDEVRILLAAGADVNAKDFQGITPLHIAAQSGHLEIVEVLLKAGADVNAKDVTGDTPLHLAAQHGHLVIVEVLLKAGADVNAQDERGWTPADLAADWGHEDIAEVLQKLGGGGSGGGGSRSDLGKKLLEAARAGQDDEVRILMANGADVNAKDEYGLTPLYLATAHGHLEIVEVLLKNGADVNAVDAIGFTPLHLAAFIGHLEIAEVLLKHGADVNAQDKFGKTAFDISIGNGNEDLAEILQKLNKLGGGGSGGGGSGGGGSGGGGSRSDLGKKLLEAARAGQDDEVRILMANGADVNAKDYFSHTPLHLAARNGHLKIVEVLLKAGADVNAKDFAGKTPLHLAANDGHLEIVEVLLKHGADVNAQDIFGKTPADIAADAGHEDIAEVLQKLN
For B2, the “% activity vs. DARPin # 41, BT474 cell proliferation” value is 100% and the “IC50 [nM], inhibition” value stood at 4.07 nM.

B3: DARPin #22 (designed binder)
chain: MRGSHHHHHHGSDLGDKLLQSDLGIKLLFAAAKSQDDEVRILLAAGADVNAKDFQSVTPLHIAAQSGHLEIVEVLLKAGADVNAKDVTGDTPLHLAAQHGHLEIVEVLLKAGADVNAQDERGWTPADLAADWGHEDIAEVLQKLGGGGSGGGGSRSDLGIKLLQAANLGQDDEVRILLATGADVNAKDSIGQTPLHWAARRGHLEIVEVLLKAGADVNAKDEYGVTPLHLAASLGHLEIVEVLLKAGADVNAQDESGETPADLAALHGHEDIAEVLQKLN
B3: the “% activity vs. DARPin # 41, BT474 cell proliferation” value is 60.1% and the “IC50 [nM], inhibition” value was found to be 4.03 nM.

B4: DARPin #47 (designed binder)
chain: MRGSHHHHHHGSDLGDKLLQSDLGIKLLFAAAKSQDDEVRILLAAGADVNAKDFQSVTPLHIAAQSGHLEIVEVLLKAGADVNAKDVTGDTPLHLAAQHGHLEIVEVLLKAGADVNAQDERGWTPADLAADWGHEDIAEVLQKLGGGGSGGGGSRSDLGIKLLVAAAQGQDDEVRILLAAGADVNAKDQQGATPLHLAAWKGHLEIVEVLLKAGADVNAKDLSGDTPLHIAAWFGHLEIVEVLLKAGADVNAQDTEGYTPADLAALYGHEDIAEVLQKLN
Turning to B4, the “% activity vs. DARPin # 41, BT474 cell proliferation” value was found to be 6.8%.

B5: DARPin #63 (designed binder)
chain: MRGSHHHHHHGSDLGAKLLSDLGVKLLWAAARGQDDEVRILLAAGADVNAKDFQGITPLHIAAQSGHLEIVEVLLKAGADVNAKDVTGDTPLHLAAQHGHLVIVEVLLKAGADVNAQDERGWTPADLAADWGHEDIAEVLQKLGGGGSGGGGSRSDLGKKLLEAARAGQDDEVRILMANGADVNAKDEYGLTPLYLATAHGHLEIVEVLLKNGADVNAVDAIGFTPLHLAAFIGHLEIAEVLLKHGADVNAQDKFGKTAFDISIGNGNEDLAEILQKAAGGGSGGGSC
modifications: PEGylated at its C-terminal Cys residue
On to B5, for which the “% activity vs. DARPin # 41, BT474 cell proliferation” value was 100% and the “IC50 [nM], inhibition” value is 1.77 nM.

B6: DARPin #40 (designed binder)
chain: MRGSHHHHHHGSDLGHKLLEAAVAGQDDEVRILLAAGADVNAKDWYGKTPLHFAAGLGHLEIVEVLLKAGADVNAKDEDGQTPLHLAAAYGHLEIVEVLLKAGADVNAQDNDGFTPADLAADSGHEDIAEVLQKLGGGGSGGGGSRSDLGKKLLEAARAGQDDEVRILMANGADVNAKDEYGLTPLYLATAHGHLEIVEVLLKNGADVNAVDAIGFTPLHLAAFIGHLEIAEVLLKHGADVNAQDKFGKTAFDISIGNGNEDLAEILQKLN
Turning to B6, the “% activity vs. DARPin # 41, BT474 cell proliferation” value was 91.2% and the “IC50 [nM], inhibition” value was determined as 2.76 nM.

B7: DARPin #64 (designed binder)
chain: MRGSHHHHHHGSDLGKKLLEAARAGQDDEVRILMANGADVNAKDYFSHTPLHLAARNGHLKIVEVLLKAGADVNAKDFAGKTPLHLAANDGHLEIVEVLLKHGADVNAQDIFGKTPADIAADAGHEDIAEVLQKLGGGGSGGGGSGGGGSGGGGSRSDLGAKLLSDLGVKLLWAAARGQDDEVRILLAAGADVNAKDFQGITPLHIAAQSGHLEIVEVLLKAGADVNAKDVTGDTPLHLAAQHGHLVIVEVLLKAGADVNAQDERGWTPADLAADWGHEDIAEVLQKLGGGGSGGGGSRSDLGKKLLEAARAGQDDEVRILMANGADVNAKDEYGLTPLYLATAHGHLEIVEVLLKNGADVNAVDAIGFTPLHLAAFIGHLEIAEVLLKHGADVNAQDKFGKTAFDISIGNGNEDLAEILQKLN
B7: the “% activity vs. DARPin # 41, BT474 cell proliferation” value stood at 100% and the “IC50 [nM], inhibition” value was found to be 2.31 nM.

B8: DARPin #37 (designed binder)
chain: MRGSHHHHHHGSDLGIKLLFAAAKGQDDEVRILLAAGADVNAKDFEGYTPLHVAAYDGHLEIVEVLLKAGADVNAKDSQGRTPLHEAAYSGHLEIVEVLLKAGADVNAQDDAGETPADLAAAWGHEDIAEVLQKLGGGGSGGGGSRSDLGKKLLEAARAGQDDEVRILMANGADVNAKDEYGLTPLYLATAHGHLEIVEVLLKNGADVNAVDAIGFTPLHLAAFIGHLEIAEVLLKHGADVNAQDKFGKTAFDISIGNGNEDLAEILQKLN
On to B8, for which the “% activity vs. DARPin # 41, BT474 cell proliferation” value was found to be 94.8% and the “IC50 [nM], inhibition” value came to 2.19 nM.

B9: DARPin #68 (designed binder)
chain: MRGSHHHHHHGSDLGAKLLSDLGVKLLWAAARGQDDEVRILLAAGADVNAKDFQGITPLHIAAQSGHLEIVEVLLKAGADVNAKDVTGDTPLHLAAQHGHLVIVEVLLKAGADVNAQDERGWTPADLAADWGHEDIAEVLQKAAGSPTPTPTTPTPTPTTPTPTPTGSDLGKKLLEAARAGQDDEVRILMANGADVNAKDEYGLTPLYLATAHGHLEIVEVLLKNGADVNAVDAIGFTPLHLAAFIGHLEIAEVLLKHGADVNAQDKFGKTAFDISIGNGNEDLAEILQKAA
Turning to B9, the “% activity vs. DARPin # 41, BT474 cell proliferation” value amounted to 100% and the “IC50 [nM], inhibition” value amounted to 5.35 nM.

B10: DARPin #24 (designed binder)
chain: MRGSHHHHHHGSDLGDKLLQSDLGIKLLFAAAKSQDDEVRILLAAGADVNAKDFQSVTPLHIAAQSGHLEIVEVLLKAGADVNAKDVTGDTPLHLAAQHGHLEIVEVLLKAGADVNAQDERGWTPADLAADWGHEDIAEVLQKLGGGGSGGGGSRSDLGKKLLEAARAGQDDEVRILMANGADVNAKDEYGLTPLYLATAHGHLEIVEVLLKNGADVNAVDAIGFTPLHLAAFIGHLEIAEVLLKHGADVNAQDKFGKTAFDISIGNGNEDLAEILQKLN
With B10, the “% activity vs. DARPin # 41, BT474 cell proliferation” value was determined as 99.9% and the “IC50 [nM], inhibition” value was determined as 1.97 nM.

B11: DARPin #45 (designed binder)
chain: MRGSHHHHHHGSDLGKKLLEAARAGQDDEVRILMANGADVNAKDFYGITPLHLAAAYGHLEIVEVLLKHGADVNAHDWNGWTPLHLAAKYGHLEIVEVLLKHGADVNAIDNAGKTPLHLAAAHGHLEIVEVLLKYGADVNAQDKFGKTAFDISIDNGNEDLAEILQKLGGGGSGGGGSRSDLGKKLLEAARAGQDDEVRILMANGADVNAKDEYGLTPLYLATAHGHLEIVEVLLKNGADVNAVDAIGFTPLHLAAFIGHLEIAEVLLKHGADVNAQDKFGKTAFDISIGNGNEDLAEILQKLN
With B11, the “% activity vs. DARPin # 41, BT474 cell proliferation” value was determined as 100% and the “IC50 [nM], inhibition” value was found to be 1.55 nM.

B12: DARPin #27 (designed binder)
chain: MRGSHHHHHHGSDLGVKLLWAAARGQDDEVRILLAAGADVNAKDFQGITPLHIAATNGHLEIVEVLLKAGADVNAKDITGETPLHHAADSGHLEIVEVLLKAGADVNAQDKAGVTPADLAAAWGHEDIAEVLQKLGGGGSGGGGSRSDLGIKLLQAANLGQDDEVRILLATGADVNAKDSIGQTPLHWAARRGHLEIVEVLLKAGADVNAKDEYGVTPLHLAASLGHLEIVEVLLKAGADVNAQDESGETPADLAALHGHEDIAEVLQKLN
On to B12, for which the “% activity vs. DARPin # 41, BT474 cell proliferation” value was 37.8% and the “IC50 [nM], inhibition” value stood at 4.57 nM.

B13: DARPin #67 (designed binder)
chain: MRGSHHHHHHGSDLGAKLLSDLGVKLLWAAARGQDDEVRILLAAGADVNAKDFQGITPLHIAAQSGHLEIVEVLLKAGADVNAKDVTGDTPLHLAAQHGHLVIVEVLLKAGADVNAQDERGWTPADLAADWGHEDIAEVLQKAAGGGGSDLGKKLLEAARAGQDDEVRILMANGADVNAKDEYGLTPLYLATAHGHLEIVEVLLKNGADVNAVDAIGFTPLHLAAFIGHLEIAEVLLKHGADVNAQDKFGKTAFDISIGNGNEDLAEILQKAA
Regarding B13, the “% activity vs. DARPin # 41, BT474 cell proliferation” value turned out to be 100% and the “IC50 [nM], inhibition” value stood at 4.87 nM.

B14: DARPin #46 (designed binder)
chain: MRGSHHHHHHGSDLGKKLLEAARAGQDDEVRILMANGADVNAKDFYGITPLHLAAAYGHLEIVEVLLKHGADVNAHDWNGWTPLHLAAKYGHLEIVEVLLKHGADVNAIDNAGKTPLHLAAAHGHLEIVEVLLKYGADVNAQDKFGKTAFDISIDNGNEDLAEILQKLGGGGSGGGGSRSDLGKKLLEAARAGQDDEVRILMANGADVNATDIHGHTPLHLAAAMGHLEIVEVLLKNGADVNANDWRGFTPLHLAALNGHLEIVEVLLKNGADVNATDTAGNTPLHLAAWFGHLEIVEVLLKNGADVNAQDKFGKTAFDISIDNGNEDLAEILQKLN
Take B14: the “% activity vs. DARPin # 41, BT474 cell proliferation” value is 100% and the “IC50 [nM], inhibition” value amounted to 3.34 nM.

B15: DARPin #29 (designed binder)
chain: MRGSHHHHHHGSDLGVKLLWAAARGQDDEVRILLAAGADVNAKDFQGITPLHIAATNGHLEIVEVLLKAGADVNAKDITGETPLHHAADSGHLEIVEVLLKAGADVNAQDKAGVTPADLAAAWGHEDIAEVLQKLGGGGSGGGGSRSDLGKKLLEAARAGQDDEVRILMANGADVNAKDEYGLTPLYLATAHGHLEIVEVLLKNGADVNAVDAIGFTPLHLAAFIGHLEIAEVLLKHGADVNAQDKFGKTAFDISIGNGNEDLAEILQKLN
For the molecule B15, the “% activity vs. DARPin # 41, BT474 cell proliferation” value stood at 95% and the “IC50 [nM], inhibition” value stood at 1.33 nM.

The values are drawn from US20150299265A1 (Molecular Partners, published 2015).
